# Assay results published in article PMC4102767.
# B1: Dpb11, endogenous, P47027 1-764 (natural protein)
# chain: MKPFQGITFCPTAINNEILAKKISKKIIKLGGIFSKDLTRQVNVLVVGSTTNTNKFKFAVKHRFDIIFIDIQAIDDIYQLWLSGENILPDSNTATMTGSTYEMLKILYRRFSFKYLHNFNIFIGRITDTNITSIDSLVRSIKKLGCSSYNYQNFVIKDTSSHNDDDDQGQNGQISIFVTDTLLGARVNAAIEQNIPIVHFKWILDCQKRSALLPYDPYYLLPNIKDLPYDSIGSNSCDCWDKINTTFPTNIDAQSSLQRQQSSSTLTPSLPKTSSLLNKFKPKGEKIWDKAMSLQQHSKTNFSVLGQSPLSINNKQEDLSDNSTLIFKNCAFIIHHIFPGNHRSILTKIVVQNGGKIETSYLSGIYDHSYYIIPSNKALDSFNDLPEIIDDNDGIVTEFFIERCLYYQKLLHPIDLWSKPFLSTIEFQVSSSSKLLHHEFSSSPFLNVTITGFSGVELLHLTKVLNLLKPMGINYVEYLNKSTDILLINLAALPSIPKTHPLWSNEFSDLFTQFCINNNNDDPGDNNRKDFQNNSILRNSMKRKIEYIKKFHSIPVVTPAFIFKLLSAASGENNEIFLNNIKWCIICPRGHKDDFKCKIKKPYYTSISSEKKYQNNDPKIDKTILLKRNNSSLSEHSMKDTKNELLQKIRETDSGRKKRSVSSSIMDVSSERQMPDTKRIKLESLPKNFVPKQIKRTTSWGTIMSENVPTEQPTAISNPEEIPRTEEVSHTQVTYGSIQDKKRTASLEKPMRRQTRNQTKELDS
# Target: Slx4-S486A^3Flag (budding yeast), Q12098
# Sequence (Q12098 whole entry S486A): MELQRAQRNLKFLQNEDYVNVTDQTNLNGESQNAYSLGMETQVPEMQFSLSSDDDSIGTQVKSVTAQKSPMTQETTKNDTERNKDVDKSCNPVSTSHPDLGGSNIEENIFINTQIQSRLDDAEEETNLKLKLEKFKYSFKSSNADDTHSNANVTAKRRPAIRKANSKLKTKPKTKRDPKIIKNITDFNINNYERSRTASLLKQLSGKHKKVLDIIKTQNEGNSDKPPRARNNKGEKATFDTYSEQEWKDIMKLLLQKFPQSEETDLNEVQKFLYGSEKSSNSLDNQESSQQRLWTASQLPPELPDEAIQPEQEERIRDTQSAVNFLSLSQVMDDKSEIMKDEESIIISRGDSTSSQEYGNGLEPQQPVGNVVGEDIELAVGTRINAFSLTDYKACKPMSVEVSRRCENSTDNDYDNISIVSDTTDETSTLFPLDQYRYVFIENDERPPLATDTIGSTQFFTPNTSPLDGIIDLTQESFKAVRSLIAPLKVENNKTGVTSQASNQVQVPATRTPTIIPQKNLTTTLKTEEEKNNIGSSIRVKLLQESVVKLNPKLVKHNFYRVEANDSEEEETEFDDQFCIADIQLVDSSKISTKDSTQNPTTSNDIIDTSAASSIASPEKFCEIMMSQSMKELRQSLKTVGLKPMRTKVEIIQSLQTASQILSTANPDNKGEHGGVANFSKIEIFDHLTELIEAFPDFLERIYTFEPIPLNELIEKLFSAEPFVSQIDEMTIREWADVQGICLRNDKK
# Assay: affinity purification with mass spectrometry
# Conditions: remark: other sources report otherwise
binder,measurement,value
B1,fold reduction of binding against wild-type Slx4^3Flag,8 fold
